To fix the notation:
B1: GLT8D2 (parent)
chain: QEAKLLHWNGRHKPWDFPSVHNDL
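Further: lentivirally expressed fusions sorted by FACS into six bins by GFP to DsRed ratio, PSI derived from sequencing read proportions per bin multiplied by bin number.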

Variants of B1 are the subject of the data set. The data set can be described thus: protein stability index of a GFP-peptide fusion (GPS, HEK-293T) (PSI 1-6); higher = more stable. Conditions: c terminus: a fixed tail appended.
In the case of QEAKLLHWNGRSKPWDFPSVHNDL [H12S], the protein stability index is 2.77.

On to QEAKLLHWNGRGKPWDFPSVHNDL [H12G], for which the protein stability index turned out to be 2.59. Turning to QEAKLLHWNGRQKPWDFPSVHNDL [H12Q], the protein stability index came to 2.58. Then QEAKLLHWNGRVKPWDFPSVHNDL [H12V], with 2.61; and QEAKLLHWNGREKPWDFPSVHNDL [H12E], with 3.19.

For the variant QEAKLLHWNGRFKPWDFPSVHNDL [H12F], the protein stability index turned out to be 2.13. Consider QEAKLLHWNGRMKPWDFPSVHNDL [H12M], for which the protein stability index amounted to 2.6. As to QEAKLLHWNGRRKPWDFPSVHNDL [H12R], the protein stability index was found to be 2.77. As for QEAKLLHWNGRWKPWDFPSVHNDL [H12W], the protein stability index came out at 2.54. For the variant QEAKLLHWNGRKKPWDFPSVHNDL [H12K], the protein stability index is 2.73. With QEAKLLHWNGRDKPWDFPSVHNDL [H12D], the protein stability index was found to be 3.26. As to QEAKLLHWNGRYKPWDFPSVHNDL [H12Y], the protein stability index turned out to be 2.28. As to QEAKLLHWNGRTKPWDFPSVHNDL [H12T], the protein stability index turned out to be 2.79. As to QEAKLLHWNGRIKPWDFPSVHNDL [H12I], the protein stability index is 2.56. In the case of QEAKLLHWNGRNKPWDFPSVHNDL [H12N], the protein stability index was determined as 2.65. QEAKLLHWNGRAKPWDFPSVHNDL [H12A]: the protein stability index was found to be 2.36.

Regarding QEAKLLHWNGRPKPWDFPSVHNDL [H12P], the protein stability index is 2.68. With QEAKLLHWNGRCKPWDFPSVHNDL [H12C], the protein stability index stood at 2.71. As to QEAKLLHWNGRLKPWDFPSVHNDL [H12L], the protein stability index is 2.45. Regarding QEAKLLTWNGRHKPWDFPSVHNDL [H7T], the protein stability index amounted to 2.88. For the variant QEAKLLFWNGRHKPWDFPSVHNDL [H7F], the protein stability index was 2.41. With QEAKLLGWNGRHKPWDFPSVHNDL [H7G], the protein stability index was 2.63. As to QEAKLLVWNGRHKPWDFPSVHNDL [H7V], the protein stability index stood at 2.1. With QEAKLLYWNGRHKPWDFPSVHNDL [H7Y], the protein stability index was found to be 1.85. QEAKLLRWNGRHKPWDFPSVHNDL [H7R]: the protein stability index was 2.81. Consider QEAKLLSWNGRHKPWDFPSVHNDL [H7S], for which the protein stability index came to 2.69. With QEAKLLPWNGRHKPWDFPSVHNDL [H7P], the protein stability index was 2.94. For the variant QEAKLLLWNGRHKPWDFPSVHNDL [H7L], the protein stability index turned out to be 2.15. Then QEAKLLIWNGRHKPWDFPSVHNDL [H7I], with 2.25; and QEAKLLQWNGRHKPWDFPSVHNDL [H7Q], with 2.9; and QEAKLLKWNGRHKPWDFPSVHNDL [H7K], with 2.48. As to QEAKLLNWNGRHKPWDFPSVHNDL [H7N], the protein stability index worked out at 2.54. As for QEAKLLMWNGRHKPWDFPSVHNDL [H7M], the protein stability index came out at 2.56. As for QEAKLLEWNGRHKPWDFPSVHNDL [H7E], the protein stability index was 2.98. For QEAKLLCWNGRHKPWDFPSVHNDL [H7C], the protein stability index came to 2.25. QEAKLLDWNGRHKPWDFPSVHNDL [H7D]: the protein stability index turned out to be 3.16. As for QEAKLLWWNGRHKPWDFPSVHNDL [H7W], the protein stability index is 2.84. Take QEAKLLHWLGRHKPWDFPSVHNDL [N9L]: the protein stability index came out at 1.83.

On to QEAKLLHWMGRHKPWDFPSVHNDL [N9M], for which the protein stability index turned out to be 2.1. Then QEAKLLHWHGRHKPWDFPSVHNDL [N9H], with 2.73; and QEAKLLHWWGRHKPWDFPSVHNDL [N9W], with 1.75. For the variant QEAKLLHWGGRHKPWDFPSVHNDL [N9G], the protein stability index was found to be 2.59.

With QEAKLLHWFGRHKPWDFPSVHNDL [N9F], the protein stability index was found to be 1.98. Then QEAKLLHWKGRHKPWDFPSVHNDL [N9K], with 2.92; and QEAKLLHWEGRHKPWDFPSVHNDL [N9E], with 2.73; and QEAKLLHWSGRHKPWDFPSVHNDL [N9S], with 2.67. Under QEAKLLHWRGRHKPWDFPSVHNDL [N9R] stands 2.46; under QEAKLLHWYGRHKPWDFPSVHNDL [N9Y], 2.33. Turning to QEAKLLHWIGRHKPWDFPSVHNDL [N9I], the protein stability index was 2. On to QEAKLLHWAGRHKPWDFPSVHNDL [N9A], for which the protein stability index is 2.71.

With QEAKLLHWVGRHKPWDFPSVHNDL [N9V], the protein stability index worked out at 2.25. Consider QEAKLLHWQGRHKPWDFPSVHNDL [N9Q], for which the protein stability index was 2.76. Then QEAKLLHWCGRHKPWDFPSVHNDL [N9C], with 2.41; and QEAKLLHWPGRHKPWDFPSVHNDL [N9P], with 2.56; and QEAKLLHWTGRHKPWDFPSVHNDL [N9T], with 2.59. As for QEAKLLHWDGRHKPWDFPSVHNDL [N9D], the protein stability index turned out to be 2.87.

Regarding QEAKLLHWNWRHKPWDFPSVHNDL [G10W], the protein stability index came out at 2.5. Turning to QEAKLLHWNDRHKPWDFPSVHNDL [G10D], the protein stability index is 2.46.

Take QEAKLLHWNPRHKPWDFPSVHNDL [G10P]: the protein stability index is 2.69. With QEAKLLHWNARHKPWDFPSVHNDL [G10A], the protein stability index was determined as 2.75. For QEAKLLHWNLRHKPWDFPSVHNDL [G10L], the protein stability index is 2.42. Turning to QEAKLLHWNSRHKPWDFPSVHNDL [G10S], the protein stability index came out at 2.69. With QEAKLLHWNERHKPWDFPSVHNDL [G10E], the protein stability index was 2.8. For QEAKLLHWNFRHKPWDFPSVHNDL [G10F], the protein stability index amounted to 2.37. As for QEAKLLHWNCRHKPWDFPSVHNDL [G10C], the protein stability index amounted to 1.49. Then QEAKLLHWNRRHKPWDFPSVHNDL [G10R], with 2.79.

On to QEAKLLHWNNRHKPWDFPSVHNDL [G10N], for which the protein stability index was 2.8.

Turning to QEAKLLHWNHRHKPWDFPSVHNDL [G10H], the protein stability index was 2.48. With QEAKLLHWNIRHKPWDFPSVHNDL [G10I], the protein stability index worked out at 2.48.

With QEAKLLHWNMRHKPWDFPSVHNDL [G10M], the protein stability index came out at 2.53.

Regarding QEAKLLHWNTRHKPWDFPSVHNDL [G10T], the protein stability index was 2.49. Under QEAKLLHWNQRHKPWDFPSVHNDL [G10Q] stands 2.7. For QEAKLLHWNKRHKPWDFPSVHNDL [G10K], the protein stability index was determined as 2.48. Consider QEAKLLHWNVRHKPWDFPSVHNDL [G10V], for which the protein stability index was 2.15. Turning to QEAKLLHWNYRHKPWDFPSVHNDL [G10Y], the protein stability index turned out to be 2.9.

Turning to QEAKLLHWNGNHKPWDFPSVHNDL [R11N], the protein stability index was 3.05. Regarding QEAKLLHWNGYHKPWDFPSVHNDL [R11Y], the protein stability index turned out to be 2.28. Regarding QEAKLLHWNGFHKPWDFPSVHNDL [R11F], the protein stability index worked out at 2.58. Then QEAKLLHWNGGHKPWDFPSVHNDL [R11G], with 2.64.

For the variant QEAKLLHWNGQHKPWDFPSVHNDL [R11Q], the protein stability index came to 3.35.

Take QEAKLLHWNGWHKPWDFPSVHNDL [R11W]: the protein stability index amounted to 2.18.

In the case of QEAKLLHWNGIHKPWDFPSVHNDL [R11I], the protein stability index stood at 2.76. Consider QEAKLLHWNGPHKPWDFPSVHNDL [R11P], for which the protein stability index was determined as 2.33. For the variant QEAKLLHWNGTHKPWDFPSVHNDL [R11T], the protein stability index turned out to be 3.11.

In the case of QEAKLLHWNGKHKPWDFPSVHNDL [R11K], the protein stability index was found to be 2.61. Regarding QEAKLLHWNGEHKPWDFPSVHNDL [R11E], the protein stability index stood at 3.58.

QEAKLLHWNGSHKPWDFPSVHNDL [R11S]: the protein stability index was 2.82.

As for QEAKLLHWNGDHKPWDFPSVHNDL [R11D], the protein stability index was 3.33. For the variant QEAKLLHWNGCHKPWDFPSVHNDL [R11C], the protein stability index is 2.55.

QEAKLLHWNGMHKPWDFPSVHNDL [R11M]: the protein stability index amounted to 3.1. As for QEAKLLHWNGAHKPWDFPSVHNDL [R11A], the protein stability index turned out to be 3.24.

As to QEAKLLHWNGHHKPWDFPSVHNDL [R11H], the protein stability index amounted to 2.64.

Consider QEAKLLHWNGVHKPWDFPSVHNDL [R11V], for which the protein stability index was determined as 2.62. As to QEAKLLHWNGLHKPWDFPSVHNDL [R11L], the protein stability index is 2.34.
